Test results from US20240018260A1 (AMUNIX PHARMACEUTICALS, published 2024).

T1: human EpCAM on EpCAM positive human carcinoma cells (SW480, SK-OV-3) (human, UniProt P16422 24-314)
T1 sequence (looked up): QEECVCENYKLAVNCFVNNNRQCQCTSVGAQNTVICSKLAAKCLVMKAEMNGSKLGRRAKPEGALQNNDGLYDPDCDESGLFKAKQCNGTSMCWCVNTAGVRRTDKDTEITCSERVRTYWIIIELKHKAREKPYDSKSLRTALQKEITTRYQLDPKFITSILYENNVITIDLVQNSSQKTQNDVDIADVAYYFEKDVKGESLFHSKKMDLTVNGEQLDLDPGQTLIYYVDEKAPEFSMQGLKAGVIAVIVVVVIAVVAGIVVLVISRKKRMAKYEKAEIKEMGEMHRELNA

T2: recombinant human CD3 (rhCD3εδ) (human, UniProt P07766 23-126; P04234 22-105)
T2 chain: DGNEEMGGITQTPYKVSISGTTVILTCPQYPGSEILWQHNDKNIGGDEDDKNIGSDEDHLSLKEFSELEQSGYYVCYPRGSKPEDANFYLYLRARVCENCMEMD

T3: recombinant human EpCAM (rhEpCAM) (human, UniProt P16422 24-265)
T3 construct: Bought recombinant protein coated on the ELISA plate
T3 sequence (looked up): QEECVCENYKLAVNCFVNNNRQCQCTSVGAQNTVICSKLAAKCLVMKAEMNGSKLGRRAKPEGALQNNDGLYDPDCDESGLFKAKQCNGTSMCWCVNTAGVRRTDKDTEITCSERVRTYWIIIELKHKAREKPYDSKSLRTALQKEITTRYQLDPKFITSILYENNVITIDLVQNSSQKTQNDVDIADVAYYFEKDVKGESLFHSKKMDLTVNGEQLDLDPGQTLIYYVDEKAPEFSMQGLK


Columns and labels:
[1] = molecular target: T1, human EpCAM on EpCAM positive human …; test: cell-based or functional assay
[2] = molecular target: human CD3 on purified human CD3 positive T cells (human, UniProt P07766 23-207); test: cell-based or functional assay
[3] = molecular target: T2, recombinant human CD3 (rhCD3εδ); test: sandwich ELISA: rhCD3εδ coated on plate, detection with peroxidase-conjugated protein L
[4] = molecular target: T3, recombinant human EpCAM (rhEpCAM); test: sandwich ELISA: rhEpCAM coated on plate, detection with peroxidase-conjugated protein L
Protocol: The binding capability of anti-EpCAM×anti-CD3 ProTIA composition was verified with an EpCAM/peroxidase-conjugated protein-L sandwich ELISA. In the ELISA binding assay, recombinant human EpCAM (rhEpCAM) (Sino BiologicalR&D Systems cat #10694-H08H960-EP-50) was coated on a 96-well, flat-bottomed plate at a concentration of 0.1 microg/100 microL. After overnight incubation at 4° C., the assay plate was washed and blocked with 3% bovine serum albumin (BSA) for 1 h at room temperature. The plate was washed again followed by the introduction of a dose range of non-cleavable anti-EpCAM×anti-CD3 ProTIA (i.e., a ProTIA without the release segment cleavage sequence and AC1484, a ProTIA chimeric polypeptide assembly composition) and protease-treated and protease-untreated anti-EpCAM×anti-CD3 ProTIA (e.g. AC1476). The dose range utilized for non-cleavable and protease-treated and untreated ProTIA was 0.0006 to 5 nM, achieved with a 1:6 fold serial dilution scheme from a starting concentration of 5 nM. The plate was allowed to incubate with shaking for 1 h at room temperature to allow the non-cleavable, protease-cleaved and uncleaved ProTIA to bind to the rhEpCAM coated on the plate. Unbound components were removed with a wash step and a peroxidase-conjugated protein L (PierceThermoFisher Scientific cat #32420) was added. After an appropriate incubation period that allowed protein-L to bind to the kappa light of the scFvs, any unbound reagent was removed by a wash step followed by the addition of tetramethylbenzidine (TMB) substrate to each well. TMB is a chromogenic substrate of peroxidase. After desired color intensity was reached, 0.2 N sulfuric acid was added to stop the reaction and absorbance (OD) was measured at 450 nm using a spectrophotometer. The intensity of the color is proportional to the concentration of non-cleavable, protease-treated and untreated anti-EpCAM×anti-CD3 ProTIA captured by the rhEpCAM/protein-L sandwich ELISA. The intensity of the color produced (measured OD) was plotted against protein concentration; and the concentration of non-cleavable, protease-cleaved and uncleaved anti-EpCAM×anti-CD3 ProTIA that gave half-maximal response (EC₅₀) was derived with a 4-parameter logistic regression equation using GraphPad prism software.

Row | Binder | EC50, LDH release cytotoxicity, PBMC:SK-OV-3 5:1 [1] [nM] | EC50, LDH release cytotoxicity, purified human CD3 positive T cells:OVCAR-3 5:1 [2] [nM] | EC50, LDH release cytotoxicity, purified human CD3 positive T cells:SK-OV-3 5:1 [2] [nM] | EC50 [3] [nM] | EC50 [4] [nM] | fold hindrance of binding by XTEN864, against the cleaved and released anti-CD3scFv portion [3] [fold] | fold hindrance of binding by XTEN864, against protease-treated ProTIA [4] [fold] | EC50, LDH release cytotoxicity, PBMC:SW480 5:1 [1] [nM]
1 | AC1484, non-cleavable anti-EpCAM×anti-CD3 ProTIA (without the release segment cleavage sequence) (bispecific antibody, also called non-cleavable ProTIA; protease-noncleavable anti-EpCAM×anti-CD3 ProTIA) DIQMTQSPSSLSASVGDRVTITCRSTKSLLHSNGITYLYWYQQKPGKAPKLLIYQMSNLASGVPSRFSSSGSGTDFTLTISSLQPEDFATYYCAQNLEIPRTFGQGTKVEIKGATPPETGAETESPGETTGGSAESEPPGEGQVQLVQSGPGLVQPGGSVRISCAASGYTFTNYGMNWVKQAPGKGLEWMGWINTYTGESTYADSFKGRFTFSLDTSASAAYLQINSLRAEDTAVYYCARFAIKGDYWGQGTLLTVSSGGGGSDIQMTQSPSSLSASVGDRVTITCRASQDIRNYLNWYQQKPGKAPKLLIYYTSRLESGVPSRFSGSGSGTDYTLTISSLQPEDFATYYCQQGNTLPWTFGQGTKVEIKGATPPETGAETESPGETTGGSAESEPPGEGEVQLVESGGGLVQPGGSLRLSCAASGYSFTGYTMNWVRQAPGKGLEWVALINPYKGVSTYNQKFKDRFTISVDKSKNTAYLQMNSLRAEDTAVYYCARSGYYGDSDWYFDVWGQGTLVTVSSGSPGSPAGSPTSTEEGTSESATPESGPGTSTEPSEGSAPGSPAGSPTSTEEGTSTEPSEGSAPGTSTEPSEGSAPGTSESATPESGPGSEPATSGSETPGSEPATSGSETPGSPAGSPTSTEEGTSESATPESGPGTSTEPSEGSAPGTSTEPSEGSAPGSPAGSPTSTEEGTSTEPSEGSAPGTSTEPSEGSAPGTSESATPESGPGTSTEPSEGSAPGTSESATPESGPGSEPATSGSETPGTSTEPSEGSAPGTSTEPSEGSAPGTSESATPESGPGTSESATPESGPGSPAGSPTSTEEGTSESATPESGPGSEPATSGSETPGTSESATPESGPGTSTEPSEGSAPGTSTEPSEGSAPGTSTEPSEGSAPGTSTEPSEGSAPGTSTEPSEGSAPGTSTEPSEGSAPGSPAGSPTSTEEGTSTEPSEGSAPGTSESATPESGPGSEPATSGSETPGTSESATPESGPGSEPATSGSETPGTSESATPESGPGTSTEPSEGSAPGTSESATPESGPGSPAGSPTSTEEGSPAGSPTSTEEGSPAGSPTSTEEGTSESATPESGPGTSTEPSEGSAPGTSESATPESGPGSEPATSGSETPGTSESATPESGPGSEPATSGSETPGTSESATPESGPGTSTEPSEGSAPGSPAGSPTSTEEGTSESATPESGPGSEPATSGSETPGTSESATPESGPGSPAGSPTSTEEGSPAGSPTSTEEGTSTEPSEGSAPGTSESATPESGPGTSESATPESGPGTSESATPESGPGSEPATSGSETPGSEPATSGSETPGSPAGSPTSTEEGTSTEPSEGSAPGTSTEPSEGSAPGSEPATSGSETPGTSESATPESGPGTSTEPSEGSAPGHHHHHH | 1.79 | 0.086 | 2.66 | 2.2 | 0.32 | – | – | –
2 | AC1476 aEpCAM-aCD3-BSRS1-XTEN_AE864-His(6), protease-untreated (intact) anti-EpCAM×anti-CD3 ProTIA (bispecific antibody, also called ProTIA-X; protease-untreated anti-EpCAM×anti-CD3 ProTIA) DIQMTQSPSSLSASVGDRVTITCRSTKSLLHSNGITYLYWYQQKPGKAPKLLIYQMSNLASGVPSRFSSSGSGTDFTLTISSLQPEDFATYYCAQNLEIPRTFGQGTKVEIKGATPPETGAETESPGETTGGSAESEPPGEGQVQLVQSGPGLVQPGGSVRISCAASGYTFTNYGMNWVKQAPGKGLEWMGWINTYTGESTYADSFKGRFTFSLDTSASAAYLQINSLRAEDTAVYYCARFAIKGDYWGQGTLLTVSSGGGGSDIQMTQSPSSLSASVGDRVTITCRASQDIRNYLNWYQQKPGKAPKLLIYYTSRLESGVPSRFSGSGSGTDYTLTISSLQPEDFATYYCQQGNTLPWTFGQGTKVEIKGATPPETGAETESPGETTGGSAESEPPGEGEVQLVESGGGLVQPGGSLRLSCAASGYSFTGYTMNWVRQAPGKGLEWVALINPYKGVSTYNQKFKDRFTISVDKSKNTAYLQMNSLRAEDTAVYYCARSGYYGDSDWYFDVWGQGTLVTVSSGTAEAASASGLSGRSDNHSPLGLAGSPGSPAGSPTSTEEGTSESATPESGPGTSTEPSEGSAPGSPAGSPTSTEEGTSTEPSEGSAPGTSTEPSEGSAPGTSESATPESGPGSEPATSGSETPGSEPATSGSETPGSPAGSPTSTEEGTSESATPESGPGTSTEPSEGSAPGTSTEPSEGSAPGSPAGSPTSTEEGTSTEPSEGSAPGTSTEPSEGSAPGTSESATPESGPGTSTEPSEGSAPGTSESATPESGPGSEPATSGSETPGTSTEPSEGSAPGTSTEPSEGSAPGTSESATPESGPGTSESATPESGPGSPAGSPTSTEEGTSESATPESGPGSEPATSGSETPGTSESATPESGPGTSTEPSEGSAPGTSTEPSEGSAPGTSTEPSEGSAPGTSTEPSEGSAPGTSTEPSEGSAPGTSTEPSEGSAPGSPAGSPTSTEEGTSTEPSEGSAPGTSESATPESGPGSEPATSGSETPGTSESATPESGPGSEPATSGSETPGTSESATPESGPGTSTEPSEGSAPGTSESATPESGPGSPAGSPTSTEEGSPAGSPTSTEEGSPAGSPTSTEEGTSESATPESGPGTSTEPSEGSAPGTSESATPESGPGSEPATSGSETPGTSESATPESGPGSEPATSGSETPGTSESATPESGPGTSTEPSEGSAPGSPAGSPTSTEEGTSESATPESGPGSEPATSGSETPGTSESATPESGPGSPAGSPTSTEEGSPAGSPTSTEEGTSTEPSEGSAPGTSESATPESGPGTSESATPESGPGTSESATPESGPGSEPATSGSETPGSEPATSGSETPGSPAGSPTSTEEGTSTEPSEGSAPGTSTEPSEGSAPGSEPATSGSETPGTSESATPESGPGTSTEPSEGSAPGHHHHHH | 0.136 | 0.0007 | 0.134 | 1.8 | 0.28 | ~5.8 | ≥ 2.3 | –
3 | AC1357, non-cleavable anti-EpCAM×anti-CD3 ProTIA without the release segment (bispecific antibody) HHHHHHHHELVMTQSPSSLTVTAGEKVTMSCKSSQSLLNSGNQKNYLTWYQQKPGQPPKLLIYWASTRESGVPDRFTGSGSGTDFTLTISSVQAEDLAVYYCQNDYSYPLTFGAGTKLEIKGGGGSGGGGSGGGGSEVQLLEQSGAELVRPGTSVKISCKASGYAFTNYWLGWVKQRPGHGLEWIGDIFPGSGNIHYNEKFKGKATLTADKSSSTAYMQLSSLTFEDSAVYFCARLRNWDEPMDYWGQGTTVTVSSGGGGSDVQLVQSGAEVKKPGASVKVSCKASGYTFTRYTMHWVRQAPGQGLEWIGYINPSRGYTNYADSVKGRFTITTDKSTSTAYMELSSLRSEDTATYYCARYYDDHYCLDYWGQGTTVTVSSGEGTSTGSGGSGGSGGADDIVLTQSPATLSLSPGERATLSCRASQSVSYMNWYQQKPGKAPKRWIYDTSKVASGVPARFSGSGSGTDYSLTINSLEAEDAATYYCQQWSSNPLTFGGGTKVEIKGSPGSPAGSPTSTEEGTSESATPESGPGTSTEPSEGSAPGSPAGSPTSTEEGTSTEPSEGSAPGTSTEPSEGSAPGTSESATPESGPGSEPATSGSETPGSEPATSGSETPGSPAGSPTSTEEGTSESATPESGPGTSTEPSEGSAPGTSTEPSEGSAPGSPAGSPTSTEEGTSTEPSEGSAPGTSTEPSEGSAPGTSESATPESGPGTSTEPSEGSAPGTSESATPESGPGSEPATSGSETPGTSTEPSEGSAPGTSTEPSEGSAPGTSESATPESGPGTSESATPESGPGSPAGSPTSTEEGTSESATPESGPGSEPATSGSETPGTSESATPESGPGTSTEPSEGSAPGTSTEPSEGSAPGTSTEPSEGSAPGTSTEPSEGSAPGTSTEPSEGSAPGTSTEPSEGSAPGSPAGSPTSTEEGTSTEPSEGSAPGTSESATPESGPGSEPATSGSETPGTSESATPESGPGSEPATSGSETPGTSESATPESGPGTSTEPSEGSAPGTSESATPESGPGSPAGSPTSTEEGSPAGSPTSTEEGSPAGSPTSTEEGTSESATPESGPGTSTEPSEGSAPGTSESATPESGPGSEPATSGSETPGTSESATPESGPGSEPATSGSETPGTSESATPESGPGTSTEPSEGSAPGSPAGSPTSTEEGTSESATPESGPGSEPATSGSETPGTSESATPESGPGSPAGSPTSTEEGSPAGSPTSTEEGTSTEPSEGSAPGTSESATPESGPGTSESATPESGPGTSESATPESGPGSEPATSGSETPGSEPATSGSETPGSPAGSPTSTEEGTSTEPSEGSAPGTSTEPSEGSAPGSEPATSGSETPGTSESATPESGPGTSTEPSEGSAPG | – | – | – | – | – | – | – | 3.3
